This is an account of results in patent US20150232576A1.

The target in assay [1] is Phosphorylated His-p38 (p38 MAP kinase) (UniProt Q16539). In words: BLI, immobilised p38, eNOS analyte, two-component sequential model. For orientation: BLI is a label-free optical method that tracks binding on a fibre tip over time.
The target is the same in assay [2]. In words: refers to the biosensor experiments described above.
Assay [3] has the same target. In words: BLI, immobilised p38, from the pseudo first order rate at 232 nM eNOS.
Assay [4] has the same target. In words: BLI, biotinylated p38 on streptavidin sensors, 696 nM eNOS, 300 s dissociation in buffer.
Assay [5] shares this target. In words: BLI, immobilised p38, k2/k1.
For assay [6] the target is unchanged. In words: optical biosensing (BLI), summary statement.
For assay [7] the target is unchanged. In words: BLI, biotinylated p38 on streptavidin sensors, 696 nM eNOS analyte.
Assay [8] shares this target. In words: BLI, immobilised p38, 696 nM nNOS analyte, compared with eNOS.

endothelial nitric oxide synthase (eNOS), purified, unphosphorylated, sequence (P29473 whole entry): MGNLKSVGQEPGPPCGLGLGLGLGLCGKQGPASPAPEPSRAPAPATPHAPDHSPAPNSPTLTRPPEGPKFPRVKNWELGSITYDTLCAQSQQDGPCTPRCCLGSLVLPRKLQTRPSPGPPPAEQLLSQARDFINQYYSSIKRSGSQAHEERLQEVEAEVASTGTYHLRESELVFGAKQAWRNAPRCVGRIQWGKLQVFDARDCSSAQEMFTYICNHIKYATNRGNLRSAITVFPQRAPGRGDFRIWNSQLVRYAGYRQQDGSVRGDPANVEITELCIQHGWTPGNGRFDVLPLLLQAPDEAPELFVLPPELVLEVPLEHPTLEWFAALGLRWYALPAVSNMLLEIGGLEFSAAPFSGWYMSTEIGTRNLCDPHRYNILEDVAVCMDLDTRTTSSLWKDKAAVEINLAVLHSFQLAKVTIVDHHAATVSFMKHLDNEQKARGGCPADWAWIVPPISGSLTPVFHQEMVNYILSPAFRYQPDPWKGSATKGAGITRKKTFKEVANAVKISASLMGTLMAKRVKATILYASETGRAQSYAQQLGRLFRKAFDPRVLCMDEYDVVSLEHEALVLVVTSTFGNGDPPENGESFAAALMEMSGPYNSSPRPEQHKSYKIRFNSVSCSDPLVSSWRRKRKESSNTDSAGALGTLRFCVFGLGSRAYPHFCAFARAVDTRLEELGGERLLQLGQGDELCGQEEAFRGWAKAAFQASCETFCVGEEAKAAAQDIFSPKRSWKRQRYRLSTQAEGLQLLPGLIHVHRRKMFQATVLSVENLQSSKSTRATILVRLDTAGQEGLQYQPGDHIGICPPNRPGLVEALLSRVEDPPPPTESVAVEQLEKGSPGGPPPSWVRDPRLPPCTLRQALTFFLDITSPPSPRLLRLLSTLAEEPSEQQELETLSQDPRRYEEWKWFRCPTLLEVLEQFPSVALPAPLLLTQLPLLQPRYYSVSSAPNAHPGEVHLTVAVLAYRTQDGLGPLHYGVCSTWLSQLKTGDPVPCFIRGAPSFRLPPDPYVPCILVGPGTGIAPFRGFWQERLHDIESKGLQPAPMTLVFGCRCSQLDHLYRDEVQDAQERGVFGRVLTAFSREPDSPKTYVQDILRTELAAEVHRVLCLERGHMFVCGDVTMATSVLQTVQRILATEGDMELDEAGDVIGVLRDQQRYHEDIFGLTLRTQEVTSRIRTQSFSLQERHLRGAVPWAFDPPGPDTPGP

The Kd is the constant that tells how readily two partners part at equilibrium. High values mean a looser complex, low ones a tighter complex. By kon is commonly meant the second-order rate constant of association. For “endothelial nitric oxide synthase (eNOS), purified, unphosphorylated (from UniProt P29473 1-1205) (enzyme)”, in assay [1], the k1 (pseudo first order forward rate, first step) at 26 nM eNOS is 0.0025 s⁻¹; the k1 (pseudo first order forward rate, first step) at 77 nM eNOS is 0.0008 s⁻¹; the k1 (pseudo first order forward rate, first step) at 232 nM eNOS was determined as 0.03 s⁻¹; the k1 (pseudo first order forward rate, first step) at 696 nM eNOS was 0.1 s⁻¹. In assay [1], this substance had a k2 (reverse rate, first step) at 26 nM eNOS of 0.01 s⁻¹; a k2 (reverse rate, first step) at 77 nM eNOS of 0.01 s⁻¹; a k2 (reverse rate, first step) at 232 nM eNOS of 0.01 s⁻¹; a k2 (reverse rate, first step) at 696 nM eNOS of 0.01 s⁻¹. Also, in assay [1], the k3 (forward rate, second step) at 26 nM eNOS was determined as 0.0002 s⁻¹; the k3 (forward rate, second step) at 77 nM eNOS was 0.006 s⁻¹; the k3 (forward rate, second step) at 232 nM eNOS is 0.0002 s⁻¹; the k3 (forward rate, second step) at 696 nM eNOS is 0.006 s⁻¹. In assay [1], this substance displayed a k4 (reverse rate, second step) at 26 nM eNOS of 0.001 s⁻¹; a k4 (reverse rate, second step) at 77 nM eNOS of 0.001 s⁻¹; a k4 (reverse rate, second step) at 232 nM eNOS of 0.001 s⁻¹; a k4 (reverse rate, second step) at 696 nM eNOS of 0.001 s⁻¹. The same substance returned a Kd in assay [2] of 0.05 to 0.1 nM. The same substance had a kon in assay [3] of 130000 M⁻¹ s⁻¹. Besides, the percent of the rapid phase binding dissociated in buffer in assay [4] stood at 25%. This substance also had an equilibrium dissociation constant (Kd) in assay [5] of 80 nM. Further, in assay [6], the dissociation constant Kd stood at 100 nM and the on-rate (kon) came out at 150000 M⁻¹ s⁻¹. The substance also yielded a half time of the initial association component in assay [7] of 10 s.
Regarding “neuronal nitric oxide synthase (nNOS) (from UniProt P29476 1-1429) (enzyme)”, the fold slower binding than eNOS in assay [8] amounted to 30 fold.
